From paper PMC4155688, “Mapping the Putative G Protein-coupled Receptor (GPCR) Docking Site on GPCR Kinase 2” (The Journal of Biological Chemistry, 2014)
Substitutions are numbered along the chain they refer to. In names and notes the source's numbering stands.

Tests used:
[1] = molecular target: T1, α2AAR-GFP^2 (UniProt P08913 1-465); experiment: FRET or BRET; living HEK293T cells co-transfected with α2AAR-GFP^2 and RlucII-GRK2; dose-response to norepinephrine read 6 min after addition; NOR-promoted BRET fitted to biphasic (two-site) curves with a high-affinity and a low-affinity component; conditions: partners not purified
T1 construct: α2A-adrenergic receptor; also called α2A-adrenergic receptor; source: HEK293T, transfected, in living cells; not shown: GFP^2, C-terminal (from the name α2AAR-GFP^2), kept
T1 sequence (looked up): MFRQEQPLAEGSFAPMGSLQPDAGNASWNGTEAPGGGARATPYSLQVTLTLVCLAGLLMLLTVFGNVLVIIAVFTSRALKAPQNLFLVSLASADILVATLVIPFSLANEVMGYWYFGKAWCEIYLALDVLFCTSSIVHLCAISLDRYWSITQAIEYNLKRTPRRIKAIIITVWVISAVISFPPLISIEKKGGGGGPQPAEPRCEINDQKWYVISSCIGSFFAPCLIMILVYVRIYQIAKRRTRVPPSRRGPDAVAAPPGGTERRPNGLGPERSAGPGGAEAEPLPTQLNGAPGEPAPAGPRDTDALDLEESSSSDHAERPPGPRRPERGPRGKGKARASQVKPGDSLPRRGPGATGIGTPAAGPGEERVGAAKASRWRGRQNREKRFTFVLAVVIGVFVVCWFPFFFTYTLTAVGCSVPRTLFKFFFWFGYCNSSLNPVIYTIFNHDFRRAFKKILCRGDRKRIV

[2] = molecular target: T1, α2AAR-GFP^2; experiment: FRET or BRET; living HEK293T cells co-transfected with α2AAR-GFP^2 (acceptor) and RlucII-GRK2 (donor); in PBS at room temperature, with or without 100 μM norepinephrine (one-point and titration: 6 min; time course); coelenterazine 400A 5 μM; net or agonist-promoted BRET; conditions: partners not purified

B1: RlucII-GRK2 (wild type) (enzyme, human, UniProt P25098 1-689, looked up)
chain: MADLEAVLADVSYLMAMEKSKATPAARASKKILLPEPSIRSVMQKYLEDRGEVTFEKIFSQKLGYLLFRDFCLNHLEEARPLVEFYEEIKKYEKLETEEERVARSREIFDSYIMKELLACSHPFSKSATEHVQGHLGKKQVPPDLFQPYIEEICQNLRGDVFQKFIESDKFTRFCQWKNVELNIHLTMNDFSVHRIIGRGGFGEVYGCRKADTGKMYAMKCLDKKRIKMKQGETLALNERIMLSLVSTGDCPFIVCMSYAFHTPDKLSFILDLMNGGDLHYHLSQHGVFSEADMRFYAAEIILGLEHMHNRFVVYRDLKPANILLDEHGHVRISDLGLACDFSKKKPHASVGTHGYMAPEVLQKGVAYDSSADWFSLGCMLFKLLRGHSPFRQHKTKDKHEIDRMTLTMAVELPDSFSPELRSLLEGLLQRDVNRRLGCLGRGAQEVKESPFFRSLDWQMVFLQKYPPPLIPPRGEVNAADAFDIGSFDEEDTKGIKLLDSDQELYRNFPLTISERWQQEVAETVFDTINAETDRLEARKKAKNKQLGHEEDYALGKDCIMHGYMSKMGNPFLTQWQRRYFYLFPNRLEWRGEGEAPQSLLTMEEIQSVEETQIKERKCLLLKIRGGKQFILQCDSDPELVQWKKELRDAYREAQQLVQRVPKMKNKPRSPVVELSKVPLVQRGSANGL
notes: G protein-coupled receptor kinase 2 (GRK2), human; also called luciferase-GRK2; WT RlucII-GRK2; source: HEK293T, transfected, in living cells
[1]
  EC50,L of norepinephrine (low-affinity component of the biphasic BRET curve): 7.9 µM

B2: RlucII-GRK2 V477D (enzyme, human, UniProt P25098 1-689, looked up)
chain: B1 chain with V477D
notes: GRK2, human; source: HEK293T, transfected, in living cells
[1]
  percent inhibition of the high-agonist concentration BRET signal relative to WT: 74%

B3: RlucII-GRK2 L8E (enzyme, human, UniProt P25098 1-689, looked up)
chain: B1 chain with L8E
notes: as for B2
[2]
  percent reduction of the agonist-promoted BRET relative to WT: ~55%

B4: RlucII-GRK2 V11A (enzyme, human, UniProt P25098 1-689, looked up)
chain: B1 chain with V11A
notes: as for B2
[2]
  percent reduction of the agonist-promoted BRET relative to WT: ~55%

B5: RlucII-GRK2 V7E (enzyme, human, UniProt P25098 1-689, looked up)
chain: B1 chain with V7E
notes: as for B2
[2]
  percent reduction of the agonist-promoted BRET relative to WT: ~55%

B6: RlucII-GRK2 D317A (enzyme, human, UniProt P25098 1-689, looked up)
chain: B1 chain with D317A
notes: GRK2, human; catalytically inert mutant; source: HEK293T, transfected, in living cells
[2]
  fold recruitment (agonist-promoted BRET) relative to WT: 2 fold

B7: RlucII-GRK2 R195A (enzyme, human, UniProt P25098 1-689, looked up)
chain: B1 chain with R195A
notes: as for B2
[1]
  percent reduction of the low-affinity BRET component relative to WT: ~60%
[2]
  percent reduction of the agonist-promoted BRET signal relative to WT: 60%

B8: RlucII-GRK2 L4A (enzyme, human, UniProt P25098 1-689, looked up)
chain: B1 chain with L4A
notes: as for B2
[1]
  percent reduction of the low-affinity BRET component relative to WT: ~70%
[2]
  percent reduction of the agonist-promoted BRET relative to WT: ~55%

B9: RlucII-GRK2 S12A (enzyme, human, UniProt P25098 1-689, looked up)
chain: B1 chain with S12A
notes: as for B2
[1]
  fold stimulation of the low-affinity BRET component relative to WT: 2.6 fold
[2]
  fold potentiation of the total agonist-induced BRET relative to WT: 2 fold

B10: RlucII-GRK2 R587Q (enzyme, human, UniProt P25098 1-689, looked up)
chain: B1 chain with R587Q
notes: as for B2
[2]
  percent reduction of the NOR-promoted BRET signal relative to WT: 90%

B11: RlucII-GRK2 V7E/L8E (enzyme, human, UniProt P25098 1-689, looked up)
chain: B1 chain with V7E, L8E
notes: as for B2
[2]
  percent reduction of receptor recruitment (agonist-promoted BRET) relative to WT: 69%

B12: RlucII-GRK2 M17A (enzyme, human, UniProt P25098 1-689, looked up)
chain: B1 chain with M17A
notes: as for B2
[2]
  percent reduction of the agonist-promoted BRET relative to WT: ~55%

B13: RlucII-GRK2 V7A (enzyme, human, UniProt P25098 1-689, looked up)
chain: B1 chain with V7A
notes: as for B2
[2]
  percent reduction of the agonist-promoted BRET relative to WT: ~55%

B14: RlucII-GRK2 Y13A (enzyme, human, UniProt P25098 1-689, looked up)
chain: B1 chain with Y13A
notes: as for B2
[1]
  percent reduction of the low-affinity BRET component relative to WT: ~70%
[2]
  percent reduction of the agonist-promoted BRET relative to WT: ~55%

B15: RlucII-GRK2 A16V (enzyme, human, UniProt P25098 1-689, looked up)
chain: B1 chain with A16V
notes: as for B2
[2]
  percent reduction of the agonist-promoted BRET relative to WT: ~55%

B16: RlucII-GRK2 V7P (enzyme, human, UniProt P25098 1-689, looked up)
chain: B1 chain with V7P
notes: as for B2
[2]
  percent reduction of receptor recruitment (agonist-promoted BRET) relative to WT: 60%
